Data: the supplement of paper PMC7877785
± gives the uncertainty stated by the source.

Assay: self-splicing fitness, log relative to wild type (ln ratio); higher = more splicing; Tetrahymena group I intron in knt gene, E. coli kanamycin selection, DiMSum; sequences stand for … in CUCUCU…GGAGGGAAAAGUUAUCAGGCAUGCACCUGGUAGCUAGUCUUUAAACCAAUAGAUUGCAUCGGUUUAAAAGGCAAGACCGUCAAAUUGCGGGAAAGGGGUCAACAGCCGUUCAGUACCAAGUCUCAGGGGAAACUUUGAGAUGGCCUUGCAAAGGGUAUGGUAAUAAGCUGACGGACAUGGUCCUAACCACGCAGCCAAGUCCUAAGUCAACAGAUCUUCUGUUGAUAUGGAUGCAGUUCACAGACUAAAUGUCGGUCGGGGAAGAUGUAUUCUUCUCAUAAGAUAUAGUCGGACCUCUCCUUAAUGGGAGCUAGCGGAUGAAGUGAUGCAACACUGGAGCCGCUGGGAACUAAUUUGUAUGCGAAAGUAUAUUGAUUAGUUUUGGAGUACUCGUGGUCG
Method in brief: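 Library with all eight P1ex-region intron nucleotides randomised, intron inside the knt kanamycin-resistance gene on pET-22b(+), in E. coli BL21(DE3). Cells grew overnight at 37°C or 30°C on LB agar with or without 25 μg/mL kanamycin (plus 100 μg/mL carbenicillin, 50 μM IPTG, 0.2% rhamnose), in six replicate transformations. Pooled colonies were amplicon-sequenced on Illumina HiSeq 2500. DiMSum fitness is the error-weighted combination of wild-type-normalised replicate fold changes, kanamycin versus none.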

Sequence | self-splicing fitness (ln) (30 °C) | self-splicing fitness (ln) (37 °C)
AAAUAGCAAUAUUACGAUAA | -1.51 ± 0.12 | -0.658 ± 0.13
AAAUAGCAAUAUUACGAUAU | -1.21 ± 0.13 | -0.352 ± 0.16
AAAUAGCAAUAUUACGCAGU | -3.79 ± 0.2 | -1.57 ± 0.14
AAAUAGCAAUAUUACGCAUG | -1.27 ± 0.11 | -1.03 ± 0.12
AAAUAGCAAUAUUACGCCAC | -3.22 ± 0.36 | -2.18 ± 0.5
AAAUAGCAAUAUUACGCGUG | -1.11 ± 0.078 | -0.804 ± 0.11
AAAUAGCAAUAUUACGGAAA | -2.87 ± 0.26 | -1.53 ± 0.17
AAAUAGCAAUAUUACGGAAU | -3.69 ± 0.17 | -2.24 ± 0.16
AAAUAGCAAUAUUACGGCGG | -1.48 ± 0.086 | -0.335 ± 0.1
AAAUAGCAAUAUUACGGGGU | -3.27 ± 0.17 | -2.12 ± 0.19
AAAUAGCAAUAUUACGUAAA | -1.61 ± 0.096 | -0.713 ± 0.11
AAAUAGCAAUAUUACGUACC | -0.0895 ± 0.18 | -1.39 ± 0.24
AAAUAGCAAUAUUACGUACG | -1.1 ± 0.11 | -1.16 ± 0.13
AAAUAGCAAUAUUACGUCAA | -2.07 ± 0.17 | -1.8 ± 0.18
AAAUAGCAAUAUUACGUCAG | -2.52 ± 0.12 | -1.41 ± 0.11
AAAUAGCAAUAUUACGUCCG | -1.39 ± 0.16 | 0.00872 ± 0.18
AAAUAGCAAUAUUACGUUGG | -4.2 ± 0.22 | -2.57 ± 0.21
AACAAGCAAUAUUACGAAAC | -3.9 ± 0.23 | -2.33 ± 0.27
AACAAGCAAUAUUACGAAGU | -2.46 ± 0.085 | -1.29 ± 0.099
AACAAGCAAUAUUACGAGCG | -0.912 ± 0.057 | 0.125 ± 0.078
AACAAGCAAUAUUACGAUGA | -0.584 ± 0.072 | -0.801 ± 0.073
AACAAGCAAUAUUACGAUUC | -1.61 ± 0.11 | -0.551 ± 0.12
AACAAGCAAUAUUACGCAUU | -2.01 ± 0.069 | -1.32 ± 0.091
AACAAGCAAUAUUACGCCCG | -0.206 ± 0.11 | -0.347 ± 0.17

Sequence | self-splicing fitness (ln) (30 °C) | self-splicing fitness (ln) (37 °C)
AACAAGCAAUAUUACGCCGU | -1.5 ± 0.096 | -0.696 ± 0.094
AACAAGCAAUAUUACGCGAC | -2.41 ± 0.21 | -1.47 ± 0.21
AACAAGCAAUAUUACGCGUA | -1.13 ± 0.067 | -0.921 ± 0.078
AACAAGCAAUAUUACGCUGA | -1.34 ± 0.087 | -1.01 ± 0.11
AACAAGCAAUAUUACGGAGU | -2.72 ± 0.07 | -1.58 ± 0.078
AACAAGCAAUAUUACGGCAA | -0.882 ± 0.069 | 0.119 ± 0.077
AACAAGCAAUAUUACGGCAC | -0.526 ± 0.067 | -0.265 ± 0.1
AACAAGCAAUAUUACGGUUC | -2.97 ± 0.12 | -2.43 ± 0.12
AACAAGCAAUAUUACGUAAU | -1.98 ± 0.074 | -0.78 ± 0.08
AACAAGCAAUAUUACGUCAA | -1.68 ± 0.094 | -1.59 ± 0.11
AACAAGCAAUAUUACGUCAU | -2.35 ± 0.075 | -1.59 ± 0.082
AACCAGCAAUAUUACGAACG | -1.27 ± 0.08 | -1.25 ± 0.089
AACCAGCAAUAUUACGAAUG | -2.22 ± 0.089 | -1.89 ± 0.083
AACCAGCAAUAUUACGACUC | -0.597 ± 0.053 | -0.327 ± 0.066
AACCAGCAAUAUUACGACUG | -3.11 ± 0.15 | -1.83 ± 0.12
AACCAGCAAUAUUACGAGAC | -3.67 ± 0.39 | -1.71 ± 0.18
AACCAGCAAUAUUACGAGGC | -3.43 ± 0.23 | -2.2 ± 0.18
AACCAGCAAUAUUACGAGUG | -0.0963 ± 0.045 | -0.0773 ± 0.06
AACCAGCAAUAUUACGAUCA | -0.638 ± 0.1 | -0.0996 ± 0.11
AACCAGCAAUAUUACGAUGU | -0.353 ± 0.039 | 0.149 ± 0.054
AACCAGCAAUAUUACGAUUU | 0.157 ± 0.044 | -0.0356 ± 0.058
AACCAGCAAUAUUACGCCGC | -4.1 ± 0.3 | -2.45 ± 0.35
AACCAGCAAUAUUACGCCUC | -0.868 ± 0.13 | -0.399 ± 0.16
AACCAGCAAUAUUACGCGCA | -0.111 ± 0.068 | -0.00763 ± 0.089

Sequence | self-splicing fitness (ln) (30 °C) | self-splicing fitness (ln) (37 °C)
AACCAGCAAUAUUACGCUCA | -0.325 ± 0.049 | 0.493 ± 0.072
AACCAGCAAUAUUACGCUGA | -2.56 ± 0.1 | -1.51 ± 0.094
AACCAGCAAUAUUACGCUUG | -1.94 ± 0.089 | -1.07 ± 0.11
AACCAGCAAUAUUACGGAAA | -1.73 ± 0.097 | -0.275 ± 0.088
AACCAGCAAUAUUACGGACU | -0.113 ± 0.061 | 0.226 ± 0.082
AACCAGCAAUAUUACGGCGU | 0.196 ± 0.054 | 0.259 ± 0.068
AACCAGCAAUAUUACGGGAC | -2.39 ± 0.094 | -2.11 ± 0.09
AACCAGCAAUAUUACGGUGC | -3.48 ± 0.16 | -1.75 ± 0.13
AACCAGCAAUAUUACGGUGU | -1.87 ± 0.061 | -2.56 ± 0.11
AACCAGCAAUAUUACGGUUA | -2.14 ± 0.099 | -0.269 ± 0.084
AACCAGCAAUAUUACGUACG | -1.42 ± 0.063 | -0.431 ± 0.067
AACCAGCAAUAUUACGUCAG | -2.3 ± 0.079 | -1.49 ± 0.086
AACCAGCAAUAUUACGUCAU | -1.23 ± 0.063 | -1.14 ± 0.067
AACCAGCAAUAUUACGUCGG | -3.79 ± 0.12 | -1.41 ± 0.094
AACCAGCAAUAUUACGUUGA | -1.65 ± 0.083 | -0.421 ± 0.087
AACGAGCAAUAUUACGAACG | -3.03 ± 0.45 | -1.37 ± 0.28
AACGAGCAAUAUUACGACAU | -2.2 ± 0.015 | -1.33 ± 0.033
AACGAGCAAUAUUACGAGGU | -3.56 ± 0.18 | -1.96 ± 0.16
AACGAGCAAUAUUACGAUAC | -2.52 ± 0.37 | -1.97 ± 0.46
AACGAGCAAUAUUACGAUAU | -3.13 ± 0.21 | -1.3 ± 0.17
AACGAGCAAUAUUACGAUCG | -1.19 ± 0.14 | -1.06 ± 0.16
AACGAGCAAUAUUACGAUUC |  | 0.32 ± 0.17
AACGAGCAAUAUUACGCAUG | -4.23 ± 0.31 | -2.76 ± 0.29
AACGAGCAAUAUUACGGCCG | -1.2 ± 0.12 | -1.07 ± 0.21

Sequence | self-splicing fitness (ln) (30 °C) | self-splicing fitness (ln) (37 °C)
AACGAGCAAUAUUACGUGCU | -3.09 ± 0.21 | -2.16 ± 0.28
AACGAGCAAUAUUACGUGGG | -3.94 ± 0.15 | -2.7 ± 0.12
AACGAGCAAUAUUACGUUCG | -3 ± 0.48 | -1.19 ± 0.2
AACUAGCAAUAUUACGAAUC | -2.81 ± 0.17 | -1.27 ± 0.19
AACUAGCAAUAUUACGACAA | -0.829 ± 0.064 | -0.603 ± 0.066
AACUAGCAAUAUUACGACAU | -0.187 ± 0.011 | 0.0705 ± 0.032
AACUAGCAAUAUUACGAGAA | -2.64 ± 0.48 | -1.71 ± 0.22
AACUAGCAAUAUUACGAGGG | -2.13 ± 0.12 | -2.24 ± 0.19
AACUAGCAAUAUUACGAGGU | -3.14 ± 0.3 | -2.01 ± 0.25
AACUAGCAAUAUUACGAUAA | -1.41 ± 0.099 | -0.94 ± 0.099
AACUAGCAAUAUUACGAUGA | -0.741 ± 0.079 | -0.0286 ± 0.08
AACUAGCAAUAUUACGCCCU | 0.324 ± 0.067 | -0.165 ± 0.08
AACUAGCAAUAUUACGCCUC | -2.29 ± 0.3 | -0.975 ± 0.24
AACUAGCAAUAUUACGCGCA | -0.47 ± 0.099 | 0.116 ± 0.12
AACUAGCAAUAUUACGGACG | -1.21 ± 0.06 | -0.904 ± 0.072
AACUAGCAAUAUUACGGAGA | -2.62 ± 0.23 | -1.35 ± 0.2
AACUAGCAAUAUUACGGAGU | -2.95 ± 0.13 | -1.42 ± 0.13
AACUAGCAAUAUUACGGGAG | -1.35 ± 0.11 | -1.21 ± 0.13
AACUAGCAAUAUUACGGGCC | -1.81 ± 0.12 | -1.36 ± 0.14
AACUAGCAAUAUUACGGGUU | -3.03 ± 0.12 | -2.82 ± 0.17
AACUAGCAAUAUUACGGUAC | -3.39 ± 0.28 | -1.9 ± 0.17
AACUAGCAAUAUUACGGUCC | -0.628 ± 0.13 | -0.637 ± 0.15
AACUAGCAAUAUUACGGUGG | -2.14 ± 0.079 | -0.926 ± 0.086
